From publication PMC10140475

Assays:
Experiment in all cases: SPR
CH31 (mature) = settings: antibody concentrations 0.98 nM-1,000 nM; parent: <1
VRC01 (germline) = settings: antibody concentrations 0.98 nM-1,000 nM; parent: N/A
VRC01 (mature) = settings: antibody concentrations 0.98 nM-1,000 nM; parent: <10
CH31 (germline) = settings: antibody concentrations 0.98 nM-1,000 nM; parent: N/A
eOD-GT8 = biological target: eOD-GT8

Substance | Kd (CH31 (mature)) [nM] | Kd (VRC01 (germline)) [nM] | Kd (VRC01 (mature)) [nM] | Kd (CH31 (germline)) [nM] | Kd (eOD-GT8) [nM]
BG505 SOSIP trimer (fully glycosylated) (from UniProt Q2N0S6) | 0.14 | 670 | < 0.1 | 4000 | –
gl-CH31 | – | – | – | – | 11900
